Data taken from patent US20250388641A1 (CUGENE, published 2025).
One block for each binder: values may come before it.

What was measured:
[1] = molecular target: T1, huIL-15Rβ-6His (human, UniProt P14784 27-240, limits assumed); test: ELISA binding EC50 relative to wild type P-0153
T1 construct: Coated on the ELISA plate; also called hull-15Rβ-6His; IL-15Rβ subunit
T1 sequence: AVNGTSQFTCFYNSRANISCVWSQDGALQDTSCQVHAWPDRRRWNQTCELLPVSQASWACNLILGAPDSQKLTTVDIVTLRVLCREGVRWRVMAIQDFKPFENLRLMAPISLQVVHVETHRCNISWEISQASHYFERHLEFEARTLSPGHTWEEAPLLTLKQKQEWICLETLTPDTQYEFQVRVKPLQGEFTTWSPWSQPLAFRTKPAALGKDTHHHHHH
Protocol: (§1) The binding activity was tested in ELISA assay. Briefly, Nunc Maxisorp (ThermoFisher) plates were coated overnight at 4° C. with hull-15Rβ-6His at 1 ug/well (100 μl/well) in bicarbonate buffer pH 9.4 (ThermoFisher). After washing 3 times with PBS/0.05% Tween20, plates were incubated with SuperBlock (300 μl/well) at room temperature for 2 hrs. to block nonspecific binding. After washing, IL-15 compounds each at 3-fold serial dilutions with blocking buffer were added to the plates (100 μl/well) and incubated at room temperature for 1 hr. After washing, the Fc fusions were detected by 1 hr. incubation at room temperature with a goat anti-human IgG Fc secondary antibody conjugated with horseradish peroxidase (HRP) at 1:5000 dilution in blocking buffer (ThermoFisher) (100 μl/well). After washing, TMB substrate (ThermoFisher) was added (100 μl/well). Plates were sealed and incubated 5-20 min at room temperature in dark. Reaction was stopped by adding 2N sulfuric acid (Ricca Chemical) (50 μL/well) and absorbance was read at 450-590 nm.

[2] = molecular target: T1, huIL-15Rβ-6His; test: ELISA, huIL-15Rβ-6His coated on plate, anti-human IgG Fc-HRP detection
Protocol: as §1

[3] = molecular target: T1, huIL-15Rβ-6His; test: ELISA binding to IL-15Rβ, relative to wild type (repeats Table 3)
Protocol: as §1

[4] = molecular target: T1, huIL-15Rβ-6His; test: ELISA binding EC50 relative to wild type (3.9 nM)
Protocol: as §1

Fold change [1]: 36 fold
EC50 [2]: 23.1 nM
B1: P-0178, IL-15/IL-15Rα heterodimeric Fc fusion, IL-15i3 (… insertion after N95) (Fc fusion)
chain 1: DKTHTCPPCPAPEAAGAPSVFLFPPKPKDTLMISRTPEVTCVVVDVSHEDPEVKFNWYVDGVEVHNAKTKPREEQYNSTYRVVSVLTVLHQDWLNGKEYKCKVSNKALPAPIEKTISKAKGQPREPQVYTLPPCREEMTKNQVSLSCAVKGFYPSDIAVEWESNGQPENNYKTTPPVLDSDGSFFLVSKLTVDKSRWQQGNVFSCSVMHEALHNHYTQKSLSLSPGEPKSSDKTHTSPPSPNWVNVISDLKKIEDLIQSMHIDATLYTESDVHPSCKVTAMKCFLLELQVISLESGDASIHDTVENLIILANNSLSSNGNVTESGCKECEELEEKNGSSGSSGGSIKEFLQSFVHIVQMFINTS
chain 2: DKTHTCPPCPAPEAAGAPSVFLFPPKPKDTLMISRTPEVTCVVVDVSHEDPEVKFNWYVDGVEVHNAKTKPREEQYNSTYRVVSVLTVLHQDWLNGKEYKCKVSNKALPAPIEKTISKAKGQPREPQVCTLPPSREEMTKNQVSLWCLVKGFYPSDIAVEWESNGQPENNYKTTPPVLDSDGSFFLYSKLTVDKSRWQQGNVFSCSVMHEALHNHYTQKSLSLSPGEPKSSDKTHTSPPSPITCPPPMSVEHADIWVKSYSLYSRERYICNSGFKRKAGTSSLTECVLNKATNVAHWTTPSLKCIRDPALVHQRPAPP

Fold change in binding EC50 [3]: 1.4 fold
Fold change [4]: 1.4 fold
EC50 [2]: 5.57 nM
B2: P-0181, IL-15/IL-15Rα heterodimeric Fc fusion, IL-15m3 (Q108S, D30T, V31Y, H31E) (Fc fusion)
chain 1: DKTHTCPPCPAPEAAGAPSVFLFPPKPKDTLMISRTPEVTCVVVDVSHEDPEVKFNWYVDGVEVHNAKTKPREEQYNSTYRVVSVLTVLHQDWLNGKEYKCKVSNKALPAPIEKTISKAKGQPREPQVYTLPPCREEMTKNQVSLSCAVKGFYPSDIAVEWESNGQPENNYKTTPPVLDSDGSFFLVSKLTVDKSRWQQGNVFSCSVMHEALHNHYTQKSLSLSPGEPKSSDKTHTSPPSPNWVNVISDLKKIEDLIQSMHIDATLYTESTYEPSCKVTAMKCFLLELQVISLESGDASIHDTVENLIILANNSLSSNGNVTESGCKECEELEEKNIKEFLQSFVHIVSMFINTS
chain 2: B1 chain 2
